Changes are numbered by the printed parent chain. Starred links: 1 amine or outer side, 2 acyl side, 3 side chain; linkers in the order of their positions; H or OH if unused. Non-standard residues stand in square brackets, D forms with d. Groups on a side chain read outwards from the residue. No end group written: not given here. *: point of attachment. C20 diacid = O=C(O)CCCCCCCCCCCCCCCCCCC(=O)*; αMePhe(2-F) = C[C@](N)(Cc1ccccc1F)C(=O)O; γGlu = O=C(O)[C@H](CCC(=O)[*:2])N[*:1]; αMeF = C[C@](N)(Cc1ccccc1)C(=O)O; 4Pal = N[C@@H](Cc1ccncc1)C(=O)O; αMeL = CC(C)C[C@](C)(N)C(=O)O; Orn = NCCC[C@H](N)C(=O)O; AEEA = NCCOCCOCC(=O)O; Aib = CC(C)(N)C(=O)O
T1: human glucose-dependent insulinotropic polypeptide (GIP) receptor (human, UniProt P48546 22-466)
T1 construct: whole, on cells; Assayed as crude membranes of stably transfected CHO cells; also called hGIPR; human GIP receptor
T1 sequence (looked up): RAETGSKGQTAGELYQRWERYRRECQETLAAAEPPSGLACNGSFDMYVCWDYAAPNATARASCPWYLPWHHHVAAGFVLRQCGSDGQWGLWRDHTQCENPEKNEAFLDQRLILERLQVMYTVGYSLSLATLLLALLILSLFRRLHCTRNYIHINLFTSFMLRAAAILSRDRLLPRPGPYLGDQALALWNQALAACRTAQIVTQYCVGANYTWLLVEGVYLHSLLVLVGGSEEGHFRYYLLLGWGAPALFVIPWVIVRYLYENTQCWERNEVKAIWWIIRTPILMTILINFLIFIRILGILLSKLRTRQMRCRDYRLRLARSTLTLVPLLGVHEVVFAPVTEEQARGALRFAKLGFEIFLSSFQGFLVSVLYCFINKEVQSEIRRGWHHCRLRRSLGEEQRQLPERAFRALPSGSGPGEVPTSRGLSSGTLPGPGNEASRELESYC

B1: Example 1 (peptide)
peptide: YXEGTFISDYSILLDKKAQXDFVNWLLAQGPSSGAPPPS
modifications: D-Ala2; K17((2-[2-(2-Amino-ethoxy)-ethoxy]-acetyl)2-(γ-Glu)-CO-(CH2)18-CO2H); Aib20; C-terminal amide
B2: Example 2 (peptide)
peptide: B1 peptide
modifications: D-Ala2; K17((2-[2-(2-Amino-ethoxy)-ethoxy]-acetyl)2-(γ-Glu)-CO-(CH2)16-CO2H); Aib20; C-terminal amide
B3: Example 17 (peptide)
peptide: B1 peptide with A28E
modifications: D-Ala2; K17((2-[2-(2-Amino-ethoxy)-ethoxy]-acetyl)2-(γ-Glu)-CO-(CH2)16-CO2H); Aib20; C-terminal amide
B4: Example 29 (peptide)
peptide: B1 peptide with D21E, N24E, Q29G
modifications: D-Ala2; K17((2-[2-(2-Amino-ethoxy)-ethoxy]-acetyl)2-(γ-Glu)-CO-(CH2)16-CO2H); Aib20; C-terminal amide
B5: Example 20 (peptide)
peptide: B1 peptide with D21E
modifications: D-Ala2; K17((2-[2-(2-Amino-ethoxy)-ethoxy]-acetyl)2-(γ-Glu)-CO-(CH2)16-CO2H); Aib20; C-terminal amide
B6: Example 27 (peptide)
peptide: B1 peptide with D21E, N24Q, Q29G
modifications: D-Ala2; K17((2-[2-(2-Amino-ethoxy)-ethoxy]-acetyl)2-(γ-Glu)-CO-(CH2)16-CO2H); Aib20; C-terminal amide
B7: Example 16 (peptide)
peptide: B1 peptide with N24E
modifications: D-Ala2; K17((2-[2-(2-Amino-ethoxy)-ethoxy]-acetyl)2-(γ-Glu)-CO-(CH2)16-CO2H); Aib20; C-terminal amide
B8: Example 19 (peptide)
peptide: B1 peptide with Q29G
modifications: D-Ala2; K17((2-[2-(2-Amino-ethoxy)-ethoxy]-acetyl)2-(γ-Glu)-CO-(CH2)16-CO2H); Aib20; C-terminal amide
B9: Example 28 (peptide)
peptide: B1 peptide with D21E, A28E, Q29G
modifications: D-Ala2; K17((2-[2-(2-Amino-ethoxy)-ethoxy]-acetyl)2-(γ-Glu)-CO-(CH2)16-CO2H); Aib20; C-terminal amide
B10: Example 45 (peptide)
peptide: Y[Aib]EGTFISDYSI[αMeL]LDKK([AEEA-AEEA-γGlu-C20 diacid])HQ[Aib]DFVE[4Pal]LLETGPSSGAPPPS-NH2
modifications: N-terminus assumed
SMILES: CC[C@H](C)[C@H](NC(=O)[C@H](Cc1ccccc1)NC(=O)[C@@H](NC(=O)CNC(=O)[C@H](CCC(=O)O)NC(=O)C(C)(C)NC(=O)[C@@H](N)Cc1ccc(O)cc1)[C@@H](C)O)C(=O)N[C@@H](CO)C(=O)N[C@@H](CC(=O)O)C(=O)N[C@@H](Cc1ccc(O)cc1)C(=O)N[C@@H](CO)C(=O)N[C@H](C(=O)N[C@@](C)(CC(C)C)C(=O)N[C@@H](CC(C)C)C(=O)N[C@@H](CC(=O)O)C(=O)N[C@@H](CCCCN)C(=O)N[C@@H](CCCCNC(=O)COCCOCCNC(=O)COCCOCCNC(=O)CC[C@H](NC(=O)CCCCCCCCCCCCCCCCCCC(=O)O)C(=O)O)C(=O)N[C@@H](Cc1c[nH]cn1)C(=O)N[C@@H](CCC(N)=O)C(=O)NC(C)(C)C(=O)N[C@@H](CC(=O)O)C(=O)N[C@@H](Cc1ccccc1)C(=O)N[C@H](C(=O)N[C@@H](CCC(=O)O)C(=O)N[C@@H](Cc1ccncc1)C(=O)N[C@@H](CC(C)C)C(=O)N[C@@H](CC(C)C)C(=O)N[C@@H](CCC(=O)O)C(=O)N[C@H](C(=O)NCC(=O)N1CCC[C@H]1C(=O)N[C@@H](CO)C(=O)N[C@@H](CO)C(=O)NCC(=O)N[C@@H](C)C(=O)N1CCC[C@H]1C(=O)N1CCC[C@H]1C(=O)N1CCC[C@H]1C(=O)N[C@@H](CO)C(N)=O)[C@@H](C)O)C(C)C)[C@@H](C)CC
B11: Example 122 (peptide)
peptide: Y[Aib]EGTFISDYSI[αMeL]LD[Orn]IHQ[Aib]EFVE[4Pal]K([AEEA-AEEA-γGlu-C20 diacid])LEAGPSSGAPPPS-NH2
modifications: N-terminus assumed
SMILES: CC[C@H](C)[C@H](NC(=O)[C@H](CCCN)NC(=O)[C@H](CC(=O)O)NC(=O)[C@H](CC(C)C)NC(=O)[C@](C)(CC(C)C)NC(=O)[C@@H](NC(=O)[C@H](CO)NC(=O)[C@H](Cc1ccc(O)cc1)NC(=O)[C@H](CC(=O)O)NC(=O)[C@H](CO)NC(=O)[C@@H](NC(=O)[C@H](Cc1ccccc1)NC(=O)[C@@H](NC(=O)CNC(=O)[C@H](CCC(=O)O)NC(=O)C(C)(C)NC(=O)[C@@H](N)Cc1ccc(O)cc1)[C@@H](C)O)[C@@H](C)CC)[C@@H](C)CC)C(=O)N[C@@H](Cc1c[nH]cn1)C(=O)N[C@@H](CCC(N)=O)C(=O)NC(C)(C)C(=O)N[C@@H](CCC(=O)O)C(=O)N[C@@H](Cc1ccccc1)C(=O)N[C@H](C(=O)N[C@@H](CCC(=O)O)C(=O)N[C@@H](Cc1ccncc1)C(=O)N[C@@H](CCCCNC(=O)COCCOCCNC(=O)COCCOCCNC(=O)CC[C@H](NC(=O)CCCCCCCCCCCCCCCCCCC(=O)O)C(=O)O)C(=O)N[C@@H](CC(C)C)C(=O)N[C@@H](CCC(=O)O)C(=O)N[C@@H](C)C(=O)NCC(=O)N1CCC[C@H]1C(=O)N[C@@H](CO)C(=O)N[C@@H](CO)C(=O)NCC(=O)N[C@@H](C)C(=O)N1CCC[C@H]1C(=O)N1CCC[C@H]1C(=O)N1CCC[C@H]1C(=O)N[C@@H](CO)C(N)=O)C(C)C
B12: Example 41 (peptide)
peptide: Y[Aib]EGT[αMeF]ISDYSIALDKK([AEEA-AEEA-γGlu-C20 diacid])HQ[Aib]DFVE[4Pal]LLETGPSSGAPPPS-NH2
modifications: N-terminus assumed
SMILES: CC[C@H](C)[C@H](NC(=O)[C@H](CO)NC(=O)[C@H](Cc1ccc(O)cc1)NC(=O)[C@H](CC(=O)O)NC(=O)[C@H](CO)NC(=O)[C@@H](NC(=O)[C@](C)(Cc1ccccc1)NC(=O)[C@@H](NC(=O)CNC(=O)[C@H](CCC(=O)O)NC(=O)C(C)(C)NC(=O)[C@@H](N)Cc1ccc(O)cc1)[C@@H](C)O)[C@@H](C)CC)C(=O)N[C@@H](C)C(=O)N[C@@H](CC(C)C)C(=O)N[C@@H](CC(=O)O)C(=O)N[C@@H](CCCCN)C(=O)N[C@@H](CCCCNC(=O)COCCOCCNC(=O)COCCOCCNC(=O)CC[C@H](NC(=O)CCCCCCCCCCCCCCCCCCC(=O)O)C(=O)O)C(=O)N[C@@H](Cc1c[nH]cn1)C(=O)N[C@@H](CCC(N)=O)C(=O)NC(C)(C)C(=O)N[C@@H](CC(=O)O)C(=O)N[C@@H](Cc1ccccc1)C(=O)N[C@H](C(=O)N[C@@H](CCC(=O)O)C(=O)N[C@@H](Cc1ccncc1)C(=O)N[C@@H](CC(C)C)C(=O)N[C@@H](CC(C)C)C(=O)N[C@@H](CCC(=O)O)C(=O)N[C@H](C(=O)NCC(=O)N1CCC[C@H]1C(=O)N[C@@H](CO)C(=O)N[C@@H](CO)C(=O)NCC(=O)N[C@@H](C)C(=O)N1CCC[C@H]1C(=O)N1CCC[C@H]1C(=O)N1CCC[C@H]1C(=O)N[C@@H](CO)C(N)=O)[C@@H](C)O)C(C)C
B13: Example 121 (peptide)
peptide: Y[Aib]EGT[αMePhe(2-F)]ISDYSILLDKIHQ[Aib]DFVE[4Pal]K([AEEA-AEEA-γGlu-C20 diacid])LEQGPSSGAPPPS-NH2
modifications: N-terminus assumed
SMILES: CC[C@H](C)[C@H](NC(=O)[C@H](CO)NC(=O)[C@H](Cc1ccc(O)cc1)NC(=O)[C@H](CC(=O)O)NC(=O)[C@H](CO)NC(=O)[C@@H](NC(=O)[C@](C)(Cc1ccccc1F)NC(=O)[C@@H](NC(=O)CNC(=O)[C@H](CCC(=O)O)NC(=O)C(C)(C)NC(=O)[C@@H](N)Cc1ccc(O)cc1)[C@@H](C)O)[C@@H](C)CC)C(=O)N[C@@H](CC(C)C)C(=O)N[C@@H](CC(C)C)C(=O)N[C@@H](CC(=O)O)C(=O)N[C@@H](CCCCN)C(=O)N[C@H](C(=O)N[C@@H](Cc1c[nH]cn1)C(=O)N[C@@H](CCC(N)=O)C(=O)NC(C)(C)C(=O)N[C@@H](CC(=O)O)C(=O)N[C@@H](Cc1ccccc1)C(=O)N[C@H](C(=O)N[C@@H](CCC(=O)O)C(=O)N[C@@H](Cc1ccncc1)C(=O)N[C@@H](CCCCNC(=O)COCCOCCNC(=O)COCCOCCNC(=O)CC[C@H](NC(=O)CCCCCCCCCCCCCCCCCCC(=O)O)C(=O)O)C(=O)N[C@@H](CC(C)C)C(=O)N[C@@H](CCC(=O)O)C(=O)N[C@@H](CCC(N)=O)C(=O)NCC(=O)N1CCC[C@H]1C(=O)N[C@@H](CO)C(=O)N[C@@H](CO)C(=O)NCC(=O)N[C@@H](C)C(=O)N1CCC[C@H]1C(=O)N1CCC[C@H]1C(=O)N1CCC[C@H]1C(=O)N[C@@H](CO)C(N)=O)C(C)C)[C@@H](C)CC

These binders were tested against T1, human glucose-dependent insulinotropic … (assay: SPA, displacement of [125I]-GIP from hGIPR membranes, 0.1% bacitracin).

| Binder | Ki [nM] |
| --- | --- |
| B1 | 0.0667 |
| B2 | 0.0373 |
| B3 | 0.0571 |
| B4 | 0.0569 |
| B5 | 0.0477 |
| B6 | 0.0354 |
| B7 | 0.0438 |
| B8 | 0.0469 |
| B9 | 0.0732 |
| B10 | 0.0663 |
| B11 | 0.0311 |
| B12 | 0.143 |
| B13 | 0.103 |

Each binder was assayed against T2, human glucagon receptor (human, UniProt P47871 26-477) (assay: SPA, displacement of [125I]-Gcg from hGcgR membranes, 0.1% bacitracin).
T2 construct: whole, on cells; Assayed as crude membranes of stably transfected HEK293 cells; also called hGcgR; GcgR
T2 sequence (P47871 26-477): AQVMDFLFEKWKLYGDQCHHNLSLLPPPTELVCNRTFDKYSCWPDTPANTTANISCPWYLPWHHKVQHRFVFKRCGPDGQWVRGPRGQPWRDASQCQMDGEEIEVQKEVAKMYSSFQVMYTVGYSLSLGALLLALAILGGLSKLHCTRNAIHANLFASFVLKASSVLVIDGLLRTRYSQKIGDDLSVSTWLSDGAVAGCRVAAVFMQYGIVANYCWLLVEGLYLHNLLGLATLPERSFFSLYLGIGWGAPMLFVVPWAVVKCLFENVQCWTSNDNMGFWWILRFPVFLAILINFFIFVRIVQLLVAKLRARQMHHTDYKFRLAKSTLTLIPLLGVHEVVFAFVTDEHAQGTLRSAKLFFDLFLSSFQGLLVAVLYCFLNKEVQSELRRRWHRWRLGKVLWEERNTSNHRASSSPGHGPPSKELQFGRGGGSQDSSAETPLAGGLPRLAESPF
Experimental: The binding buffer contains 25 mM 4-(2-hydroxyethyl)-1-piperazineethanesulfonic acid (HEPES), pH 7.4, 2.5 mM CaCl₂), 1 mM MgCl₂, 0.1% (w/v) bacitracin (Research Products), 0.003% (w/v) Polyoxyethylenesorbitan monolaurate (TWEEN®-20), and Roche Complete™ Protease Inhibitors without EDTA. […] Plates are sealed and mixed on a plate shaker (setting 6) for 1 minute and read with a PerkinElmer Trilux MicroBeta® scintillation counter after 12 hours of incubation/settling time at room temperature.
Data are analyzed using four-parameter (curve maximum, curve minimum, […], Hill slope) nonlinear regression routines (Genedata Screener, version 12.0.4, Genedata AG, Basal, Switzerland). […] Values for Kᵢ are reported as the geometric mean, with error expressed as the standard error of the mean (SEM) and n is equal to the number of independent replicates (determined in assays performed on different days).

| Binder | Ki [nM] |
| --- | --- |
| B1 | 228 |
| B2 | 379 |
| B3 | 274 |
| B4 | 133 |
| B5 | 216 |
| B6 | 401 |
| B7 | 549 |
| B8 | 335 |
| B9 | 86.8 |
| B10 | 660 |
| B11 | 957 |
| B12 | 758 |
| B13 | 94.9 |

Each binder was assayed against T3, human GLP-1 receptor (human, UniProt P43220 24-463) (assay: SPA, displacement of [125I]-GLP-1 from hGLP-1R membranes, 0.1% bacitracin).
T3 construct: whole, on cells; Assayed as crude membranes of stably transfected HEK293 cells; also called hGLP1R; hGLP-1R
Procedure, shortened: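 Binding buffer: 25 mM HEPES pH 7.4, 2.5 mM CaCl₂, 1 mM MgCl₂, 0.1% bacitracin, 0.003% Tween-20, protease inhibitors without EDTA. Four-parameter nonlinear regression; Kᵢ given as geometric mean ± SEM, n = independent replicates run on different days.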

| Binder | Ki [nM] |
| --- | --- |
| B1 | 57.8 |
| B2 | 77.9 |
| B3 | 106 |
| B4 | 22.7 |
| B5 | 79.8 |
| B6 | 23.2 |
| B7 | 99.2 |
| B8 | 15.2 |
| B9 | 6.46 |

— patent US20210032299A1 (Eli Lilly, published 2021)
